Data on two substances can be found in publication PMC6289052.

One data set has as its system USF1 DBD (mouse). As to the kind of experiment: PBM. To be noted: not given in the material (PBM protein binding as described previously).
The test system of a further data set is TCF4 DBD (mouse). As to the kind of experiment: PBM. To be noted: not given in the material (PBM protein binding as described previously).

In the data set with USF1 DBD (mouse), GTCACGTG, cytosine yielded a binding signal of 87 Z-score.
The substance CAGGTGGT, cytosine gave a binding signal with TCF4 DBD (mouse) of 52 Z-score.
